Our source for the pKa values is article PMC5974136.

One may read the pKa as the pH at which an ionisable group is half protonated.

The data set deals with Tyr24 (position 24, …). The data set can be described thus: NMR. The note with it: 10 C; no added salt (NaCl, KCl absent); 10 mM phosphate only; 10 mM phosphate buffer (initial pH 7), 0.1 mM DSS; soluble, predominantly disordered repetitive domain; about 1.5-2.2 mM protein.

B1: MaSp1 repetitive domain 15-mer (15 contiguous copies of the consensus repeat of major ampullate spidroin 1) (Nephila clavipes (Trichonephila clavipes); … (protein)
chain: GRGGLGGQGAGAAAAAGGAGQGGYGGLGSQGTSGRGGLGGQGAGAAAAAGGAGQGGYGGLGSQGTSGRGGLGGQGAGAAAAAGGAGQGGYGGLGSQGTSGRGGLGGQGAGAAAAAGGAGQGGYGGLGSQGTSGRGGLGGQGAGAAAAAGGAGQGGYGGLGSQGTSGRGGLGGQGAGAAAAAGGAGQGGYGGLGSQGTSGRGGLGGQGAGAAAAAGGAGQGGYGGLGSQGTSGRGGLGGQGAGAAAAAGGAGQGGYGGLGSQGTSGRGGLGGQGAGAAAAAGGAGQGGYGGLGSQGTSGRGGLGGQGAGAAAAAGGAGQGGYGGLGSQGTSGRGGLGGQGAGAAAAAGGAGQGGYGGLGSQGTSGRGGLGGQGAGAAAAAGGAGQGGYGGLGSQGTSGRGGLGGQGAGAAAAAGGAGQGGYGGLGSQGTSGRGGLGGQGAGAAAAAGGAGQGGYGGLGSQGTSGRGGLGGQGAGAAAAAGGAGQGGYGGLGSQGTS
Turning to B1, the pKa is recorded as 10.25 ± 0.02.
